Usually Km stands for the substrate concentration at which the rate is half of its maximum. For orientation: Vmax means the rate approached at saturating substrate. As a reminder, the kcat is the number of substrate molecules converted per active site and unit of time at saturation.

Entries after “also recorded” stand apart in the source; their conditions may differ.

The subject of data set [1] is feruloyl-CoA:monolignol transferase (FMT). As to the kind of experiment: FMT enzymatic assay (UPLC detection of product). The format is biochemical, Angelica sinensis. The settings on record: for FMT activity with monolignol: monolignol as acyl acceptor, feruloyl-CoA as donor; for Product formed by FMT from CoA thioester: CoA thioester as acyl donor, coniferyl alcohol as acceptor. As to the method:
The FMT activity assay contained 100 mM MOPS pH 6.8, 1 mM dithiothreitol (DTT), 1 mM feruloyl-CoA, 1 mM coniferyl alcohol, 3.9 μg of purified FMT protein and deionized water to a volume of 50 μL. After a 30-minute incubation, 1 μL of 10 M hydrochloric acid was added to stop the reaction. Because the product synthesized in the reaction, coniferyl ferulate (CAFA), is insoluble, 50 μL of methanol was added to solubilize the CAFA. Prior to UPLC, protein and insoluble material were removed by filtering through an Amicon Ultracel 10K membrane filter (Millipore). The flow-through was analyzed using an Acquity Ultra Performance LC with an Acquity UPLC BEH C18 1.7 μm 2.1×100 mm column and the Acquity Console and Empower 2 Software, all from Waters Corporation. The solvents used in this method were solvent A, 0.1% trifluoroacetic acid, and solvent B, 100% acetonitrile. Samples were analyzed using the following gradient conditions, 13% B, for 5 minutes, 1 minute linear gradient to 42% B, held for 4 minutes, 1 minute linear gradient to 100% B, held for 1 minutes and 3 minutes at 13% B with a flow rate of 0.3 ml/minute. This method was then used to analyze a 10 μL injection of each assay reaction; standards for each of the substrates along with chemically synthesized CAFA were used to determine retention times for each compound. Purified recombinant enzyme was assayed for FMT activity using a reaction mixture containing 2 mM coniferyl alcohol, […], 100 mM HEPES pH 7.4 and 1 mM DTT. The second most abundant BAHD acyltransferase gene when incubated with Coniferyl alcohol and feruloyl-CoA produced a compound with the retention time of authentic coniferyl ferulate (CAFA) (FIG. 2). […] The addition of methanol to 50% after stopping the enzyme with acid was required to analyze the product by UPLC. The insolubility of the product made partial purification easy as the product was separated from the substrates by centrifugation.

Data set [2] is described as follows: Solubility observed in aqueous enzyme assay mixtures. The format is physicochemical. To be noted: aqueous assay mixture, in words. The protocol:
The FMT activity assay contained 100 mM MOPS pH 6.8, 1 mM dithiothreitol (DTT), 1 mM feruloyl-CoA, 1 mM coniferyl alcohol, 3.9 μg of purified FMT protein and deionized water to a volume of 50 μL. After a 30-minute incubation, 1 μL of 10 M hydrochloric acid was added to stop the reaction. Because the product synthesized in the reaction, coniferyl ferulate (CAFA), is insoluble, 50 μL of methanol was added to solubilize the CAFA. Prior to UPLC, protein and insoluble material were removed by filtering through an Amicon Ultracel 10K membrane filter (Millipore). The flow-through was analyzed using an Acquity Ultra Performance LC with an Acquity UPLC BEH C18 1.7 μm 2.1×100 mm column and the Acquity Console and Empower 2 Software, all from Waters Corporation. The solvents used in this method were solvent A, 0.1% trifluoroacetic acid, and solvent B, 100% acetonitrile. Samples were analyzed using the following gradient conditions, 13% B, for 5 minutes, 1 minute linear gradient to 42% B, held for 4 minutes, 1 minute linear gradient to 100% B, held for 1 minutes and 3 minutes at 13% B with a flow rate of 0.3 ml/minute. This method was then used to analyze a 10 μL injection of each assay reaction; standards for each of the substrates along with chemically synthesized CAFA were used to determine retention times for each compound. […]

For a further data set, the target named is T1, OsPMT (Oryza sativa subsp. japonica, UniProt Q5JNT2).
T1 construct: 6xHis (N); made in house; host or cells: E. coli BL21
T1 sequence (Q5JNT2 1-439): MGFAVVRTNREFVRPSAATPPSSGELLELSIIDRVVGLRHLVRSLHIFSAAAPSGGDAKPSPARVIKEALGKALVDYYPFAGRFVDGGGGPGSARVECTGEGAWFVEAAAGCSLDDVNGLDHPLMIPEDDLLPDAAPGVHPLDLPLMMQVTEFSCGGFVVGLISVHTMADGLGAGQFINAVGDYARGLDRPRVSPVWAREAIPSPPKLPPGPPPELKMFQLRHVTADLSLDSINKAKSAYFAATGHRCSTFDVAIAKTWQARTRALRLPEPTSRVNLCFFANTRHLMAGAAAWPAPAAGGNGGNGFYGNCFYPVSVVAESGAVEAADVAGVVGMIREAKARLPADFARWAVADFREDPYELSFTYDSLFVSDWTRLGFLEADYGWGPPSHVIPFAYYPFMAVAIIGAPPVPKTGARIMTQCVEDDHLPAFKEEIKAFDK
Put plainly: OsPMT kinetic assay (CoASH release detected with DTNB at A412). The format is biochemical. To be noted: for Substrate quality as acyl donor for OsPMT: tested acyl donors, in words. The protocol:
(§1) Kinetics—Kinetic analyses were performed using an assay modified from Santoro et al. (Anal. Biochem. 354: 70-77 (2006)). The standard 100 μL reaction mixture contained 50 mM sodium phosphate pH 6, 2 mM 5,5′-dithiobis-(2-nitrobenzoic acid) (DTNB), 0.01-1 mM CoA thioester substrate, and 0.005-1.0 mM monolignol alcohol substrate and initiated by adding 100 ng of purified OsPMT protein in 1×BSA (NEB). The CoA thioester substrates included p-coumaroyl-CoA 2a and caffeoyl-CoA 2b, and the monolignol substrates included sinapyl alcohol 1S and p-coumaryl alcohol 1H. Enzyme activity was measured as an increase in CoASH, detected with DTNB at A412, which is released as a result of monolignol conjugate synthesis (id.). The absorbance was measured every three min. for 40 min on a Spectramax Plus microplate reader using Softmax Pro 5.3 (Molecular Devices). The reactions were stopped by adding hydrochloric acid to a concentration of 100 mM, and then solubilized by adding methanol to 50%. Aliquots of 10 μL from each assay were analyzed via UPLC to verify product production. A standard curve was created for each CoA thioester from triplicate assays of five concentrations from 50 nM to 1 mM of coenzyme-A. Each reaction contained the same buffer and DTNB concentrations as the kinetic assays, along with 0.5 mM of a CoA thioester (p-coumaroyl-CoA 2a, caffeoyl-CoA 2b, or feruloyl-CoA 2c). The equation derived from fitting this standard curve was used to calculate the quantity (moles) of product synthesized in the assay. Kinetic parameters, Vmax and Km, were calculated using a nonlinear regression by entering the reaction rate and substrate concentration into the program R64, version 2.12.0 (Team, R. D. C., R: A language and environment for statistical computing, R Foundation for Statistical Computing, Vienna, Austria (2010).

Substrate in data set [3]: CC(C)(COP(=O)(O)OP(=O)(O)OC[C@H]1O[C@@H](n2cnc3c(N)ncnc32)[C@H](O)[C@@H]1OP(=O)(O)O)[C@@H](O)C(=O)NCCC(=O)NCCSC(=O)/C=C/c1ccc(O)cc1
Described as above. The format is biochemical, Oryza sativa. The settings on record: other: varying substrate, pH 6.0. As to the method: as §1

Substrate in data set [4]: COc1cc(/C=C/CO)cc(OC)c1O
Described as above. In kind it is biochemical, Oryza sativa. To be noted: other: varying substrate, pH 6.0. The protocol: as §1

Substrate in data set [5]: CC(C)(COP(=O)(O)OP(=O)(O)OC[C@H]1O[C@@H](n2cnc3c(N)ncnc32)[C@H](O)[C@@H]1OP(=O)(O)O)[C@@H](O)C(=O)NCCC(=O)NCCSC(=O)/C=C/c1ccc(O)c(O)c1
The description is as above. In kind it is biochemical, Oryza sativa. The settings on record: other: varying substrate, pH 6.0. As to the method:
as §1

Substrate in data set [6]: OC/C=C/c1ccc(O)cc1
The description is as above. The format is biochemical, Oryza sativa. The settings on record: other: varying substrate, pH 6.0. The protocol: as §1

The mark [7] stands for this setting: saturating substrate p-coumaryl alcohol 1H.
The mark [8] stands for this setting: saturating substrate sinapyl alcohol 1S.
The mark [9] stands for this setting: saturating substrate caffeoyl-CoA 2b.
Setting [10] is: saturating substrate p-coumaroyl-CoA 2a.

For `COc1cc(/C=C/CO)cc(OC)c1O` [sinapyl alcohol 1S, sinapyl alcohol], in data set [1], the “FMT activity with monolignol” value is “active”.
`OC/C=C/c1ccc(O)c(O)c1` [caffeyl alcohol 1C, caffeyl alcohol]: the Solubility result in data set [2] is listed as “limited solubility”.
`OC/C=C/c1ccc(O)cc1` [p-coumaryl alcohol 1H, p-coumaryl alcohol]: the “Synthetic rate relative to sinapyl alcohol 1S” value on OsPMT (acyl acceptor compared with sinapyl alcohol 1S) was 6 times. Moreover, the “FMT activity with monolignol” value in data set [1] is recorded as “active”.
`CC(C)(COP(=O)(O)OP(=O)(O)OC[C@H]1O[C@@H](n2cnc3c(N)ncnc32)[C@H](O)[C@@H]1OP(=O)(O)O)[C@@H](O)C(=O)NCCC(=O)NCCSC(=O)/C=C/c1ccc(O)c(O)c1` [caffeoyl-CoA 2b, caffeoyl-CoA]: the “Substrate quality as acyl donor for OsPMT” value (“Substrate quality” for short) at OsPMT is “good substrates”. In addition, the “Product formed by FMT from CoA thioester” value in data set [1] was “very little product”.
In the case of `COc1cc(/C=C/COC(=O)/C=C/c2ccc(O)c(OC)c2)ccc1O` [coniferyl ferulate], the Solubility entry in data set [2] is given as “mostly insoluble in water; also recorded: partially insoluble”.
Regarding `COc1cc(/C=C/CO)ccc1O` [coniferyl alcohol 1G, coniferyl alcohol], in data set [1], the “FMT activity with monolignol” value is on record as “active”.
Regarding `COc1cc(/C=C/C(=O)SCCNC(=O)CCNC(=O)[C@H](O)C(C)(C)COP(=O)(O)OP(=O)(O)OC[C@H]2O[C@@H](n3cnc4c(N)ncnc43)[C@H](O)[C@@H]2OP(=O)(O)O)ccc1O` [feruloyl-CoA 2c, feruloyl-CoA], the “Substrate quality” value at OsPMT is “poor substrate”. For the same molecule, the “Product formed by FMT from CoA thioester” value in data set [1] is “substantial product”.
In the case of `CC(C)(COP(=O)(O)OP(=O)(O)OC[C@H]1O[C@@H](n2cnc3c(N)ncnc32)[C@H](O)[C@@H]1OP(=O)(O)O)[C@@H](O)C(=O)NCCC(=O)NCCSC(=O)/C=C/c1ccc(O)cc1` [p-coumaroyl-CoA 2a, p-coumaroyl-CoA], the “Maximum reaction rate relative to caffeoyl-CoA 2b” value on OsPMT (acyl donor compared with caffeoyl-CoA 2b) is “at least 5 fold”. Also, on OsPMT, the “Substrate quality” value was “good substrates”. For the same molecule, the “Product formed by FMT from CoA thioester” value in data set [1] is “very little product”.

B1: OsPMT (Oryza sativa Japonica Group) (protein)
chain: T1 sequence (Q5JNT2 1-439)
notes: 6xHis (N); made in house; host or cells: E. coli BL21
Consider B1, for which the Km amounted to 281 ± 62 µM in data set [3] (setting [7]); 105 ± 12 µM in data set [3] (setting [8]); 15 ± 2 µM in data set [4] (setting [9]); 35 ± 5 µM in data set [4] (setting [10]); 92 ± 11 µM in data set [5] (setting [7]); 75 ± 5 µM in data set [5] (setting [8]). Also, the Km in data set [6] (setting [9]) worked out at 27 ± 6 µM; in data set [6] (setting [10]), 141 ± 14 µM. Further, the Vmax in data set [3] (setting [7]) was 3.69 µmol/min/mg; in data set [3] (setting [8]), 0.75 µmol/min/mg; in data set [4] (setting [9]), 0.486 µmol/min/mg; in data set [4] (setting [10]), 0.648 µmol/min/mg; in data set [5] (setting [7]) it was 0.515 µmol/min/mg; in data set [5] (setting [8]), 0.45 µmol/min/mg. In addition, the maximum rate (Vmax) stood at 0.355 µmol/min/mg in data set [6] (setting [9]) and 3.25 µmol/min/mg in data set [6] (setting [10]). In addition, the kcat turned out to be 2.93 s⁻¹ in data set [3] (setting [7]); 0.6 s⁻¹ in data set [3] (setting [8]); 0.39 s⁻¹ in data set [4] (setting [9]); 0.51 s⁻¹ in data set [4] (setting [10]); 0.41 s⁻¹ in data set [5] (setting [7]); 0.36 s⁻¹ in data set [5] (setting [8]). Besides, the figures for the kcat in data set [6] (setting [9]) and in data set [6] (setting [10]) were 0.28 s⁻¹ and 2.58 s⁻¹, respectively.
